Assays:
[1] = biological target: SNAP-25 peptide comprising amino acids 134-197 of SEQ ID NO: 5 (human); experiment: SPR (BIAcore 3000), peptide amine-coupled to CM5 chip, antibody as analyte, 1:1 fit
[2] = biological target: SNAP-25 peptide comprising amino acids 134-206 of SEQ ID NO: 5 (human); experiment: as above
[3] = biological target: FGFR3 of SEQ ID NO: 25 (Homo sapiens (Human)) (UniProt P22607); experiment: cell-based or functional assay
FGFR3 of SEQ ID NO: 25 (Homo sapiens (Human)), sequence (P22607 other isoform, or with tags, fused parts or gaps limits assumed): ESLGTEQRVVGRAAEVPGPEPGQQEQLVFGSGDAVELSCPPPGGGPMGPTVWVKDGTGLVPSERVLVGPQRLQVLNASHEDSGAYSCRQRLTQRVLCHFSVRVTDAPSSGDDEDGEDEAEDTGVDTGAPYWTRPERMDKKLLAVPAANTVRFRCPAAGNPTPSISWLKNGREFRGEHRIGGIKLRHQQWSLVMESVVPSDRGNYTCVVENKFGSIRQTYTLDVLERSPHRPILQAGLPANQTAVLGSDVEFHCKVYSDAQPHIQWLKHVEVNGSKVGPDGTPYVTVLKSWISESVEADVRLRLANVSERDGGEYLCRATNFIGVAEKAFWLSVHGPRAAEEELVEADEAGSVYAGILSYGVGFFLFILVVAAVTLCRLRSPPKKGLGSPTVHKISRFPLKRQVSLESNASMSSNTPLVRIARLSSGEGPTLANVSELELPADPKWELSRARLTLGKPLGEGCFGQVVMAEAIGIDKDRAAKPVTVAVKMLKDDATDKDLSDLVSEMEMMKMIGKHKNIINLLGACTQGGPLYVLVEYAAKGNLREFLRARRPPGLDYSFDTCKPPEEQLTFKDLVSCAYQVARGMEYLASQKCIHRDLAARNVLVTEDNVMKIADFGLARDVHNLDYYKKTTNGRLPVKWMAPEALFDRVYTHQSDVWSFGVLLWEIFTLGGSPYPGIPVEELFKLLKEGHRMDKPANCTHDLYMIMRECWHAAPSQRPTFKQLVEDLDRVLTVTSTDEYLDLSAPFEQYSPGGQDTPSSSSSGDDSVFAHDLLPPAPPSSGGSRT

Row | Substance | Kd [1] [nM] | koff [1] [s⁻¹] | kon [1] [M⁻¹ s⁻¹] | Kd [2] [nM] | koff [2] [s⁻¹] | kon [2] [M⁻¹ s⁻¹] | EC50 (nM) of SNAP-25 cleavage, Western blot, PC-12 cells transfected with FGFR3 [3] [nM] | EC50 (nM) of SNAP-25 cleavage, Western blot, SiMa cells transfected with FGFR3 [3] [nM]
1 | MC-6050 α-SNAP-25 mouse monoclonal antibody (Research & Diagnostic Antibodies) | 0.497 | 0.000882 | 1.78e+06 | 19800 | 0.00607 | 306 |  | 
2 | MC-6053 α-SNAP-25 mouse monoclonal antibody (Research & Diagnostic Antibodies) | 0.508 | 0.00118 | 2.32e+06 | 240 | 2.56e-05 |  |  | 
3 | BoNT/A complex (from UniProt P0DPI0 2-1296) (enzyme) |  |  |  |  |  |  | 0.263 | 0.0377

From patent US20120122128A1
